# Assay results published in publication PMC6555819, “Comprehensive study of nuclear receptor DNA binding provides a revised framework for understanding receptor specificity”.
# Biological target: PPARg:RXRa (Homo sapiens, UniProt P37231;P19793 full;full)
# Experiment: no ligand; PBM; 180 nM : 90 nM RXRa; PBS pH 7.4, 2% milk, 0.02% Triton X-100, 1 mM DTT, BSA, 0.4 mg/ml salmon testes DNA
# Details: tags: His kept;His cleaved; copies: 1;1; label: surface-attached array probe
# Chain of PPARg:RXRa (P37231 29-505, chain 1 of 2): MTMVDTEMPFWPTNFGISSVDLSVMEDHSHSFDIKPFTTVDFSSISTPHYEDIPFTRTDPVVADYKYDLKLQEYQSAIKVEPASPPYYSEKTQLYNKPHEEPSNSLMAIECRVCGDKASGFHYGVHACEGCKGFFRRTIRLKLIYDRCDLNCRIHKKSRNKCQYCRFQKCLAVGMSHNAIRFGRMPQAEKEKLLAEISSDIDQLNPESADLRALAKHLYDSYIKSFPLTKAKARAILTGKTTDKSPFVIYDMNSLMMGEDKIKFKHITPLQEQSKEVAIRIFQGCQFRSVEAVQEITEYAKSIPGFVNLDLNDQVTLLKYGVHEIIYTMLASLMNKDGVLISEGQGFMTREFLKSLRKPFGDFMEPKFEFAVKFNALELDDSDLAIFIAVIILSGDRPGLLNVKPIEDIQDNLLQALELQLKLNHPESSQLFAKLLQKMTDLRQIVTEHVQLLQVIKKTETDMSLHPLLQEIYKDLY
# Chain of PPARg:RXRa (P19793 whole entry, chain 2 of 2): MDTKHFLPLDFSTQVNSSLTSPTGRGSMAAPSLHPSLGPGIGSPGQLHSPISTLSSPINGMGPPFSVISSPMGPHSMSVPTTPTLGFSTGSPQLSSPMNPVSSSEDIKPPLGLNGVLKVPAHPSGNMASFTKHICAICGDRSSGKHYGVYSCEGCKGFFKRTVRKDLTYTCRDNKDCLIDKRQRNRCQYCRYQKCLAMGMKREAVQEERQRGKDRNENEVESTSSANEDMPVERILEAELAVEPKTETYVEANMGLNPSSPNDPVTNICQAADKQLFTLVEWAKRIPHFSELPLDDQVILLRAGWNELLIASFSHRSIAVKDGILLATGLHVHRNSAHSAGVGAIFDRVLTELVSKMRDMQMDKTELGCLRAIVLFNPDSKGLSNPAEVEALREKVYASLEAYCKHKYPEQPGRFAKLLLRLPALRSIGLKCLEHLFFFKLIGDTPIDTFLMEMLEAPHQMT
row,Binder,binding signal
1,NRC3_wobSeed25_DR1_A23G_o1 (dsDNA) DNA 1: GCCAAACTAGGTCAAAGGTCAAGGTCGAGCCAACCAGCGATTGACAGCGTAGAATGAAGG DNA 2: CCTTCATTCTACGCTGTCAATCGCTGGTTGGCTCGACCTTGACCTTTGACCTAGTTTGGC,14.4 PBM z-score against 500 random probes
2,NRC3_wobSeed25_DR1_A22G_o1 (dsDNA) DNA 1: GCCAAACTAGGTCAAAGGTCAGAGTCGAGCCAACCAGCGATTGACAGCGTAGAATGAAGG DNA 2: CCTTCATTCTACGCTGTCAATCGCTGGTTGGCTCGACTCTGACCTTTGACCTAGTTTGGC,14.2 PBM z-score against 500 random probes
3,NRC3_wobSeed25_DR1_A23C_o1 (dsDNA) DNA 1: GCCAAACTAGGTCAAAGGTCAACGTCGAGCCAACCAGCGATTGACAGCGTAGAATGAAGG DNA 2: CCTTCATTCTACGCTGTCAATCGCTGGTTGGCTCGACGTTGACCTTTGACCTAGTTTGGC,14.2 PBM z-score against 500 random probes
4,NRC3_wobSeed121_DR5_C7G_o1 (dsDNA) DNA 1: GCCAAAGTAGGTCACCGGAAGGTCAAAGTCCGCATGGCGATTGACAGCGTAGAATGAAGG DNA 2: CCTTCATTCTACGCTGTCAATCGCCATGCGGACTTTGACCTTCCGGTGACCTACTTTGGC,10.4 PBM z-score against 500 random probes
5,NRC3_wobSeed121_DR5_A4T_o1 (dsDNA) DNA 1: GCCTAACTAGGTCACCGGAAGGTCAAAGTCCGCATGGCGATTGACAGCGTAGAATGAAGG DNA 2: CCTTCATTCTACGCTGTCAATCGCCATGCGGACTTTGACCTTCCGGTGACCTAGTTAGGC,10.2 PBM z-score against 500 random probes
6,NRC3_wobSeed33_DR1_A13C_o1 (dsDNA) DNA 1: GCATCTCTAGGTCAAAGTTCAGTGAATCCCGAGGATGCGATTGACAGCGTAGAATGAAGG DNA 2: CCTTCATTCTACGCTGTCAATCGCATCCTCGGGATTCACTGAACTTTGACCTAGAGATGC,11.7 PBM z-score against 500 random probes
7,NRC3_wobSeed33_DR1_A13G_o1 (dsDNA) DNA 1: GCATCTCTAGGTGAAAGTTCAGTGAATCCCGAGGATGCGATTGACAGCGTAGAATGAAGG DNA 2: CCTTCATTCTACGCTGTCAATCGCATCCTCGGGATTCACTGAACTTTCACCTAGAGATGC,10.7 PBM z-score against 500 random probes
8,NRC3_wobSeed36_DR1_C23G_o1 (dsDNA) DNA 1: GCCCGACTGGGGCAAAGGTTACGATACTCAGTACGAGCGATTGACAGCGTAGAATGAAGG DNA 2: CCTTCATTCTACGCTGTCAATCGCTCGTACTGAGTATCGTAACCTTTGCCCCAGTCGGGC,12.2 PBM z-score against 500 random probes
9,NRC3_wobSeed36_DR1_G5C_o1 (dsDNA) DNA 1: GCCCCACTGGGGCAAAGGTTACCATACTCAGTACGAGCGATTGACAGCGTAGAATGAAGG DNA 2: CCTTCATTCTACGCTGTCAATCGCTCGTACTGAGTATGGTAACCTTTGCCCCAGTGGGGC,12.2 PBM z-score against 500 random probes
10,NRC3_random_hg19_305_o1 (dsDNA) DNA 1: GCGACTGCACTCCAGCCTGGGCAATAGAGTGAGACTGCGATTGACAGCGTAGAATGAAGG DNA 2: CCTTCATTCTACGCTGTCAATCGCAGTCTCACTCTATTGCCCAGGCTGGAGTGCAGTCGC,-0.27 PBM z-score against 500 random probes
11,NRC3_wobSeed1_DR0_G23T_o1 (dsDNA) DNA 1: GCCAAACTAGGTCAAGGTCAAATTCGGTTTGTGCCAGCGATTGACAGCGTAGAATGAAGG DNA 2: CCTTCATTCTACGCTGTCAATCGCTGGCACAAACCGAATTTGACCTTGACCTAGTTTGGC,10.2 PBM z-score against 500 random probes
12,NRC3_wobSeed73_DR3_A4T_o1 (dsDNA) DNA 1: GCCTAACTAGGTCACAGAGGTCAAAGTCCGTGCGTAGCGATTGACAGCGTAGAATGAAGG DNA 2: CCTTCATTCTACGCTGTCAATCGCTACGCACGGACTTTGACCTCTGTGACCTAGTTAGGC,10.9 PBM z-score against 500 random probes
13,NRC3_random_hg19_118_o1 (dsDNA) DNA 1: GCTTGTCACTTGTCATTCCTGCCAAGAGAGCTCTATGCGATTGACAGCGTAGAATGAAGG DNA 2: CCTTCATTCTACGCTGTCAATCGCATAGAGCTCTCTTGGCAGGAATGACAAGTGACAAGC,-0.38 PBM z-score against 500 random probes
14,NRC3_wobSeed65_DR2_T13C_o1 (dsDNA) DNA 1: GCATATGTAGGTCATCGGGTCATTCAGTTTGCGCATGCGATTGACAGCGTAGAATGAAGG DNA 2: CCTTCATTCTACGCTGTCAATCGCATGCGCAAACTGAATGACCCGATGACCTACATATGC,10.2 PBM z-score against 500 random probes
15,NRC3_random_hg19_131_o1 (dsDNA) DNA 1: GCTCCCTCAAGCTCTCTGAATCTCAGAGTCAGCATCGCGATTGACAGCGTAGAATGAAGG DNA 2: CCTTCATTCTACGCTGTCAATCGCGATGCTGACTCTGAGATTCAGAGAGCTTGAGGGAGC,-0.66 PBM z-score against 500 random probes
16,NRC3_wobSeed29_DR1_T5A_o1 (dsDNA) DNA 1: GCGCATACGGGTCAAAGGTTATAGCATGAATAGAATGCGATTGACAGCGTAGAATGAAGG DNA 2: CCTTCATTCTACGCTGTCAATCGCATTCTATTCATGCTATAACCTTTGACCCGTATGCGC,12.2 PBM z-score against 500 random probes
17,NRC3_wobSeed29_DR1_A23G_o1 (dsDNA) DNA 1: GCGCTTACGGGTCAAAGGTTATGGCATGAATAGAATGCGATTGACAGCGTAGAATGAAGG DNA 2: CCTTCATTCTACGCTGTCAATCGCATTCTATTCATGCCATAACCTTTGACCCGTAAGCGC,12 PBM z-score against 500 random probes

row,Binder,binding signal
1,NRC3_wobSeed31_DR1_A13G_o1 (dsDNA) DNA 1: GCTCATATAGGTGAAAGGTGAAAGTCGGTGTGGTAAGCGATTGACAGCGTAGAATGAAGG DNA 2: CCTTCATTCTACGCTGTCAATCGCTTACCACACCGACTTTCACCTTTCACCTATATGAGC,11.6 PBM z-score against 500 random probes
2,NRC3_wobSeed31_DR1_A13T_o1 (dsDNA) DNA 1: GCTCATATAGGTTAAAGGTGAAAGTCGGTGTGGTAAGCGATTGACAGCGTAGAATGAAGG DNA 2: CCTTCATTCTACGCTGTCAATCGCTTACCACACCGACTTTCACCTTTAACCTATATGAGC,10.8 PBM z-score against 500 random probes
3,NRC3_wobSeed97_DR4_G27A_o1 (dsDNA) DNA 1: GCCAAACTAGGTCACGAAAGGTCAAAATCGAATGACGCGATTGACAGCGTAGAATGAAGG DNA 2: CCTTCATTCTACGCTGTCAATCGCGTCATTCGATTTTGACCTTTCGTGACCTAGTTTGGC,10.9 PBM z-score against 500 random probes
4,NRC3_wobSeed97_DR4_C29T_o1 (dsDNA) DNA 1: GCCAAACTAGGTCACGAAAGGTCAAAGTTGAATGACGCGATTGACAGCGTAGAATGAAGG DNA 2: CCTTCATTCTACGCTGTCAATCGCGTCATTCAACTTTGACCTTTCGTGACCTAGTTTGGC,10.9 PBM z-score against 500 random probes
5,NRC3_wobSeed97_DR4_C7G_o1 (dsDNA) DNA 1: GCCAAAGTAGGTCACGAAAGGTCAAAGTCGAATGACGCGATTGACAGCGTAGAATGAAGG DNA 2: CCTTCATTCTACGCTGTCAATCGCGTCATTCGACTTTGACCTTTCGTGACCTACTTTGGC,10.8 PBM z-score against 500 random probes
6,NRC3_wobSeed97_DR4_A4T_o1 (dsDNA) DNA 1: GCCTAACTAGGTCACGAAAGGTCAAAGTCGAATGACGCGATTGACAGCGTAGAATGAAGG DNA 2: CCTTCATTCTACGCTGTCAATCGCGTCATTCGACTTTGACCTTTCGTGACCTAGTTAGGC,10.8 PBM z-score against 500 random probes
7,NRC3_wobSeed49_DR2_T26G_o1 (dsDNA) DNA 1: GCCAAACTAGGTCAAGAGGTCAAAGGCCGCTTCCCGGCGATTGACAGCGTAGAATGAAGG DNA 2: CCTTCATTCTACGCTGTCAATCGCCGGGAAGCGGCCTTTGACCTCTTGACCTAGTTTGGC,10.9 PBM z-score against 500 random probes
8,NRC3_wobSeed49_DR2_A15C_o1 (dsDNA) DNA 1: GCCAAACTAGGTCACGAGGTCAAAGTCCGCTTCCCGGCGATTGACAGCGTAGAATGAAGG DNA 2: CCTTCATTCTACGCTGTCAATCGCCGGGAAGCGGACTTTGACCTCGTGACCTAGTTTGGC,10.5 PBM z-score against 500 random probes
9,NRC3_wobSeed42_DR1_A8T_o1 (dsDNA) DNA 1: GCTATACTGGGTCAAAGGCCAGAGTACGAATGTCGAGCGATTGACAGCGTAGAATGAAGG DNA 2: CCTTCATTCTACGCTGTCAATCGCTCGACATTCGTACTCTGGCCTTTGACCCAGTATAGC,10.8 PBM z-score against 500 random probes
10,NRC3_wobSeed39_DR1_A19C_o1 (dsDNA) DNA 1: GCCGAACTAGGTCAAAGGCCAGTGAAAGGCGACGTAGCGATTGACAGCGTAGAATGAAGG DNA 2: CCTTCATTCTACGCTGTCAATCGCTACGTCGCCTTTCACTGGCCTTTGACCTAGTTCGGC,11.3 PBM z-score against 500 random probes
11,NRC3_wobSeed39_DR1_G22C_o1 (dsDNA) DNA 1: GCCGAACTAGGTCAAAGGACACTGAAAGGCGACGTAGCGATTGACAGCGTAGAATGAAGG DNA 2: CCTTCATTCTACGCTGTCAATCGCTACGTCGCCTTTCAGTGTCCTTTGACCTAGTTCGGC,11.2 PBM z-score against 500 random probes
12,NRC3_wobSeed27_DR1_C6T_o1 (dsDNA) DNA 1: GCACTTGGAGGACAAAGGTCAGAGCTACGCCAGTGAGCGATTGACAGCGTAGAATGAAGG DNA 2: CCTTCATTCTACGCTGTCAATCGCTCACTGGCGTAGCTCTGACCTTTGTCCTCCAAGTGC,10.1 PBM z-score against 500 random probes
13,NRC3_wobSeed30_DR1_C8T_o1 (dsDNA) DNA 1: GCACTAGTAGGCCAAGGGTCACTCAAGATTAGTCCGGCGATTGACAGCGTAGAATGAAGG DNA 2: CCTTCATTCTACGCTGTCAATCGCCGGACTAATCTTGAGTGACCCTTGGCCTACTAGTGC,10.9 PBM z-score against 500 random probes
14,NRC3_wobSeed30_DR1_G16A_o1 (dsDNA) DNA 1: GCACTAGCAGGCCAAAGGTCACTCAAGATTAGTCCGGCGATTGACAGCGTAGAATGAAGG DNA 2: CCTTCATTCTACGCTGTCAATCGCCGGACTAATCTTGAGTGACCTTTGGCCTGCTAGTGC,10.2 PBM z-score against 500 random probes
15,NRC3_random_hg19_235_o1 (dsDNA) DNA 1: GCGCTGGGAGGCAACTGCCATTGGCATGCCATGCCAGCGATTGACAGCGTAGAATGAAGG DNA 2: CCTTCATTCTACGCTGTCAATCGCTGGCATGGCATGCCAATGGCAGTTGCCTCCCAGCGC,-0.53 PBM z-score against 500 random probes
16,NRC3_random_hg19_88_o1 (dsDNA) DNA 1: GCAGATTGCTGGCCAACTGCTCCTGATCCATTACTAGCGATTGACAGCGTAGAATGAAGG DNA 2: CCTTCATTCTACGCTGTCAATCGCTAGTAATGGATCAGGAGCAGTTGGCCAGCAATCTGC,-0.23 PBM z-score against 500 random probes
